According to patent US20250042957A1:

Legend:
[1] = biological target: TargetA; test: SPR, bio-TargetA coated on NAD chip, DARPin 333.33-4.11 nM
[2] = biological target: TargetA; test: ELISA on TargetA, DARPin titrated

Binder | Kd [1] | EC50 (read off the curve) [2]
Parent DARPin no 4 (SEQ ID NO: 88) (designed binder) DLGKKLLQAARAGQLDEVRELLKAGADVNAKDSQGRTPLHLAAFAGHLEIVEVLLKAGADVNAKDHAGWTPLHLAAYAGHLEIVEVLVKAGADVNAKDTEGKTPLHIAAWFGHLEIVEVLLKAGADVNAQDKSGKTPADLTARAGHQDIAEVLQKAA | 0.16 nM | –
2-in-1 DARPin 24 (SEQ ID NO: 93) (designed binder) DLGKKLLQAARAGQLDEVRELLKAGADVNAKDSQGRTPLHLAAFAGHLEIVEVLLKAGADVNAKDHAGWTPLHLAAYAGHLEIVEVLVKAGADVNAKDTEGKTPLHIAAWFGHLEIVEVLLKAGADVNAKDKSGKTPLHLAARAGHLEIVEVLLKAGADVNAKDNSGQTPLHEAAWAGHLEIVEVLLKAGADVNAKNSRGWTPLHTAAQTGHLEIFEVLLKAGADVNAKNDKRVTPLHLAAALGHLEIVEVLLKAGADVNARDSWGTTPADLAAKYGHQDIAEVLQKAA | 0.119 nM | 0.8 nM
2-in-1 DARPin 25 (SEQ ID NO: 94) (designed binder) DLGKKLLQAARAGQLDEVRELLKAGADVNAKDSQGRTPLHLAAFAGHLEIVEVLLKAGADVNAKDHAGWTPLHLAAYAGHLEIVEVLVKAGADVNAKDTEGKTPLHIAAWFGHLEIVEVLLKAGADVNAKDKSGKTPLHLAARAGHLEIVEVLLKAGADVNAKDNSGQTPLHLAAWAGHLEIVEVLLKAGADVNAKNSRGWTPLHTAAQTGHLEIFEVLLKAGADVNAKNDKRVTPLHLAAALGHLEIVEVLLKAGADVNARDSWGTTPADLAAKYGHQDIAEVLQKAA | 0.018 nM | 0.7 nM
2-in-1 DARPin 23 (SEQ ID NO: 92) (designed binder) DLGKKLLQAARAGQLDEVRELLKAGADVNAKDSQGRTPLHLAAFAGHLEIVEVLLKAGADVNAKDHAGWTPLHLAAYAGHLEIVEVLVKAGADVNAKDTEGKTPLHIAAWFGHLEIVEVLLKAGADVNAKDKSGQTPLHLAAWAGHLEIVEVLLKAGADVNAKNSRGWTPLHTAAQTGHLEIFEVLLKAGADVNAKNDKRVTPLHLAAALGHLEIVEVLLKAGADVNARDSWGTTPADLAAKYGHQDIAEVLQKAA | 0.024 nM | 1 nM
